{"source": "paper PMC8748658", "binders": {"B1": {"name": "Top1-HA (enzyme)", "chain": "MSGDHLHNDSQIEADFRLNDSHKHKDKHKDREHRHKEHKKDKDKDREKSKHSNSEHKDSEKKHKEKEKTKHKDGSSEKHKDKHKDRDKERRKEEKIRAAGDAKIKKEKENGFSSPPRIKDEPEDDGYFAPPKEDIKPLKRLRDEDDADYKPKKIKTEDIKKEKKRKSEEEEDGKLKKPKNKDKDKKVAEPDNKKKKPKKEEEQKWKWWEEERYPEGIKWKFLEHKGPVFAPPYEPLPESVKFYYDGKVMKLSPKAEEVATFFAKMLDHEYTTKEIFRKNFFKDWRKEMTNDEKNTITNLSKCDFTQMSQYFKAQSEARKQMSKEEKLKIKEENEKLLKEYGFCVMDNHRERIANFKIEPPGLFRGRGNHPKMGMLKRRIMPEDIIINCSKDAKVPSPPPGHKWKEVRHDNKVTWLVSWTENIQGSIKYIMLNPSSRIKGEKDWQKYETARRLKKCVDKIRNQYREDWKSKEMKVRQRAVALYFIDKLALRAGNEKEEGETADTVGCCSLRVEHINLHPELDGQEYVVEFDFPGKDSIRYYNKVPVEKRVFKNLQLFMENKQPEDDLFDRLNTGILNKHLQDLMEGLTAKVFRTYNASITLQQQLKELTAPDENVPAKILSYNRANRAVAILCNHQRAPPKTFEKSMMNLQSKIDAKKDQLADARRDLKSAKADAKVMKDAKTKKVVESKKKAVQRLEEQLMKLEVQATDREENKQIALGTSKLNYLDPRITVAWCKKWGVPIEKIYNKTQREKFAWAIDMTDEDYEF"}}, "target": "L1-70-Myc", "assay": "ELISA; purified L1-70-Myc coated in PBS on 96-well plates; purified Top1-HA at 0.1, 0.5, 1, 5 and 10 nM, 2 h at 37 °C; detection with rabbit anti-HA, TMB"}
{"binder": "B1", "values": [{"measurement": "concentration of Top1-HA at saturation", "result": 1, "unit": "nM"}]}
